Laboratory results published in the DeepSol protein solubility set.

Test: soluble on expression in E. coli; label from the status in PepcDB or PDB records

| Sequence | soluble on expression in E. coli |
| --- | --- |
| MDNNVEDKKEAMLKRLANRHEKRLLDQVKSNTKKIDLRATERAFLESSPTSMNMRTPLNPSISSSVSDSPILSYDEKANKQIIALATWCNTMMELDVSEEMDLGESKAEACRNIQKMLKKRSDTSEVENTQENARRRYQRIFEKNDPEVVKKKCKQLLDDSGMDASIKDLLSKNNVAIRKEHAVYNDIGLQTTLLHTFLSFHPAWLKTALEAIFNTRIDAQPKHLMKKLSQFFLDLVFSNPTMLKNKKFAQGSGKPIITEAGKEALHKHFLSVSMKLMFLIETAHTHRVIPNLTRIFTKSSHFNCLDDVFSELTKELLTGSSATFKKAFAKVGFIPTYRQSFIENYDYQAKGFSDFSDGLILAKLLETVGEMPHGQILLKLRDPAGDRIRKIGNVKIVLQEMSSLGVPTDNVNAESIVGGKKDEILSILWAIIGVRVAKEQRIKVTRVSEERTPKKRRSAVHDDMSSEVLKMCKIYGRQMEIEVMDLDSLSDGCLLAKLWTTFGTNSTPIQDYDGLSLWEKVVSVAELELCIQRGLDQNMALFVKMFLERLGMIQDLNEKATKIQRMWKAYVQRKNTPKLYFIVQQLLADSSIPRNRSVSPFSNNVTFTVPRTPRNNILTERPSLSQIPSSRQSMDSTFNDATFTVSRDSIESMNKMQKTPLRGTFTRKTIAMVIEEEDDSENNETVVPSTLKKRTVVRMEHNAEVFREQDEDDENQDKDTVAPSAENLDSPPSDIPLETLSSIPSASQSAIFLQDSETGKEMHVPKAEDVGVVVLEASDSPVALEGNNEASYDGQKIENLETFEIKEGKTQEDLPSKSPMDPTQTSGSPLVEFRMTEEQERLEMLFQSLSEDQKNFVKTNNLSVSIEDDANTPELRRILRQTRELKRKQQEIARKLGNIERNALAVRDGGEDSSDSRSDAGHDVAILHGDDSQLFENSMQLDQKSQLQNDETQILENKKKAAVVIQKMIRGFIARRKFQMEISNIRNRMIQYNHILAQEDEQIGIEEMEDKSVEAKLKKCALHGLTNDNLHVVHVAATVIDRVTDLVPSLLEKLVVELNGIKSITDVLIVADRGFSYTSILHPLLNVLEKLFTKIPEEVTNSHILPHLKILSPRLMLLMLKHSEVKELFIPIINTLTSIARRFPDKKQSSFSSSSYSIKQSLKKVKDQECRNKLVRLESICEDML | not soluble |
| NATERSPVIIGLAGFTGSGRSFLNRTYTSMDFLTALKEIDEKRSDLGFIIVLPDVMTGLYGNQYLNSSAVGNYEDFIVKDIVGIIRERFGERPMGVFGKSSGGFGSYTLAVRHPDIFSGFIDVSGDSAFEYVYIPDFPDTYKEIRRQGLYRWFDEIHRKLSLQNQDIKVANIVAMSAFYSPDPGSPMGISLPFDIETGELIESVWNRWLKFDPARNIADYMDVLRDMAIFLQVGAKDEFHTDIGIGTMHRKLEQENVVHFYEVYDSGHFGIDYFYLKSLPLLIELIEQ | not soluble |
| MVVLGRIAGPHGIRGQIKVIPFTEYVDGLMEYPVWCLSRDEKNWQIVRPATFFIHDNLLIVTLTGYSDRTSASELKGLLVAVPRSQLPPLSKDGEDGYYWTDLIGISVVNMQGEPLGTVAGLFETGANDVLRVRLSGSSKDELIPFVDQVIRQVDLESRQITVDWELGYLEHHHHHH | not soluble |
| MLTQEQIDIIREGPDYFLESIWFRIGQLYGLSPGQIDHDSFEERKNDLFFLLGKLLDEGQIKIGNHKGNFISGPTPALVEMFRSSFPDSDEKAQAIWFITECPGGIVWVLKGQGEKGQDVYKWWLFKDEK | not soluble |
| MDIKKFVARRKALQISQIKLSAGICTQATLSKFERRGRVPSLAILEQLCARLGLTVDELNEDQASSVTQMRQELDHIERQLMMEDYQVVLQALNRIAVSEIAAVPLRMQYYYLSGLLKSLINGAVSDVCFDFDQILDDLDQTHETVFTPLAYVGLGVMYSRLSELAKAQFYFEKVHQAVKQALVNGDDQDYLRLLTMIFYTAEYEATREDFTTSNGLINDGVSLCSEQHVTYYLPRLKYLATANAIQQCQPDEQIQQLLSETVAFARINHNQVVEVKAAALRRRYLQARKHA | not soluble |
| MAIDLAEVTGAKAAQERKKEQPTIANGLDKNAFMKLFLEQLKNQDPTAPMETDKIITQTAQLTQVEMQEENKKTMQEVASAMKSNKETNESLKDFQGALKDTMENLNKGMDDSLKANNALREVTALNSVSMIGKIAETDVSGANFDGNNKLSFSLFFDEKIDASKGVPAIQILNENNELVKTIPLKDYNGQKGYINFEWDGTNEKGEKVPKGNYKIKAEYNLDSHSKQYLQTRIGRGEVESVIFDKGKPMLRMGEMVLPIDSAIEFYQPDQKPLEQKLSDQKPIDQKPLDQKPQTPPKETA | not soluble |
| MAKEVWRFIDSGYCPPAFNMALDEALLDWHSEGKIPPTIRFYGWNPPTLSIGYFQKVEKEIDLEAVKRHGLGFVRRPTGGRGVLHDKELTYSVIVSESHPAMPKTVTEAYRVISQGILEGFRYLGLDAYFAVPRTEEEKADLRSPRSAVCFDAPSWYELVVEGRKIAGSAQTRQKGVILQHGSILLDLDEDLLFSLFKYPNERVKERLQRDFKKKAVAINELTSRTVTIEEAKEAFYKGFEKGLNIVLEPYTLTAEERAYVEELARTKYESDEWNFKR | not soluble |
| GPGSMEGSGSYRLKRGRDELSTPPASGNFPASDQRGTQNLLRCPWCPNGHLMRPAAKSPTNNSKEEGTHLCTNRSSCPCGAVIDQDRTMSFSCIDGSDLIRNFYNALDDHLETCQIVSQTPSQRDWAPWSIVAERSILFADPSNRKQRHSVDCSPPSLSPDPKGPVFYFLHCDNCGEKEFVC | not soluble |
| MSLAPPVRSLHIGTVAGFTADPQHLDRIAIHLPALNLPDSLIFARLSKPWASHASGFCFYPEPGDEVVVGFIDSDPRYPMILGALHNPKNTAPFPPDEKNNRKGLIVSQADQTQALMIDTEEKTLRLMAGDNTLTLTGEGNLTMSTPNALQLQADTLGLQADSNLSIAGKQQVEITSAKINMKEGHHHHHH | soluble |
| MGSDKIHHHHHHMLFLMDFSMQTHAQTGDITPVVFDQFFQNYYLINPASSDSTGKIQVNIGNRSLIGLFDGVNRLYVDGNVRINHRTAMQYSRLGALVIAYNDGAFINRTRAYLRYSWSTSISERASISAGISAGMVKYTFLASQAGGGGSSTSFDGNAGLWYIRPKLKIGISYQQFTRSELTPVNQTFLLTPYINVNAVYASYLSAHVLLTTHVFYRYESGSVFDIQAAPVFLFNDLFEAGINLRYKRGVAILFGLKSIHVGTGNIRFMGSFMLSTRKLANTLDNAFELSAGYSF | not soluble |
| MFAHPANTSAASDNVSKAKLLKMLNAERKENASKDQLIESLKNQLASGGSQKIMEFYRTSVEDLQTKVMRQETIIMEQSKTIEMLSIERSKSVKVHEDQINEMQEVMDKKVKQLEENYEERLKESGNESTASFDKESRDDSLEDFVEVSINEILETAESKRKLKERINHMETHCMTMLKETMEDNKLYSAQLKDQKKQFEVLQNEKAQWEKKEIQQTMELENLRLRLRDIVSLENLIL | not soluble |
| MPRPSTCADSGGGMMTTLTARPEAITFDPQQSALIVVDMQNAYATPGGYLDLAGFDVSTTRPVIANIQTAVTAARAAGMLIIWFQNGWDEQYVEAGGPGSPNFHKSNALKTMRKQPQLQGKLLAKGSWDYQLVDELVPQPGDIVLPKPRYSGFFNTPLDSILRSRGIRHLVFTGIATNVCVESTLRDGFFLEYFGVVLEDATHQAGPKFAQKAALFNIETFFGWVSDVETFCDALSPTSFAHIA | not soluble |
| METTFALLNFKESLCYIYPPTEPVRYVSSIVALNVHSPNGTGDWHSAKALSDRAYPEKFYIYGENQERNTNHLFGDNGIIDGTDRLNKMGYFPENIPVWLADHPRACVDYLYTAVLQTGSIGRVILDDWFPSDEDKQSVYDLLNQIEPHLNTQEWENLQLWKRKNPIM | not soluble |
| MSLKWLKKQAELYPQKQFLNDSTFAQINQEVNKMAEHLAPLIDNQSRVALLSENSVEMAVVLFALLGLSKEVLLLNRHLTEYELADQIKELKIDKVFTSDLLTEKVTDSISFSEIWTSNPCPVSLSADFPDEKIAVIMNTSATTGKFKSVPITWGMISNHVKASKETLGAYDNDNWLVILPMFHVSGLSIIMRTLYNATSATVVDKFDENQLLEMINSGKINMVSLVPTLLTRIADKLHSNNLRLILLGGEFIPQPLIKKCQELGLPIYKTYGMTESFSQSVTFNILDFPDKTSSVGRPLPGVEIEIRQADLAGVGEIWLKSPMLMKAYLGQKPYGTAFETGDIGYLDTDGFLYLLNRRKDIIISGGENIYPKEIEDLVYSLPEIKECALVAKPDAKWGQVPILFVSGNISQEKLENFLTEKLAKYKRPQSITFMDELPKNASGKILRKELKEGHHHHHH | soluble |
| EFKDVFIEKQKGEILGVVIVESGWGSILPTVIIANMMHGGPAEKSGKLNIGDQIMSINGTSLVGLPLSTCQSIIKGLKNQSRVKLNIVRCPPVTTVLIRRPDLRYQLGFSVQNGIICSLMRGGIAERGGVRVGHRIIEINGQSVVATPHEKIVHILSNAVGEIHMKTMPAAMYRLLTAQEQPVYI | soluble |
| MGHHHHHHSHMANSAGSMANSAGSDKGEQYTLAVGHSLPPALESKLNEIDEISVKTFAKPEEAVDEGKADAYLNVPKEFDSYVNSMTPFKVDVYGNSIDQGSSNAMQLVQSALDQYKNEIVQQRLTNKHIDQSVIQPFTIQQKEADEEKGTSAI | not soluble |
| VSDQFDAKAFLKTVTSQPGVYRMYDAGGTVIYVGKAKDLKKRLSSYFRSNLASRKTEALVAQIQQIDVTVTHTETEALLLEHNYIKLYQPRYNVLLRDDKSY | soluble |
| MPKSAKRRASQPTGAETLVVVESPAKARSIQKMLGPGYEVRASLGHVVDLPERSLGVDVERDFAPTYEVKKDKKPVVEELKRAAEGKRLLIATDPDREGEAIGWHVARLLGRDPKEPLRVEFHEITPRVVRQAVEAPRPIDQNLVDAQQARRVLDRLLGYNLSPLLSLEFRKRALSAGRVQSVALRLVVEREEAIEAFRPEEYWVLRGVFAVEGGEAPLVATLHEVEGKRLWTGQGEKEGRLHLASEAEAHALAEALRKGSYRVAQVEVRERRKAPPPPFTTSTLQQAASSRLGYTAARTMRIAQRLYEGVDLPEGTVGLITYMRTDSVRVAPEAVAAAREVIGKAFGPEYLPEAPRAYKNRREGVQDAHEAIRPTDPKRTPESVRPYLSEEEYRLYELIWRRFLASQMRDALYEQTAVTLADLEGRYAFRASGSVLRFEGYLRAWGRDAEEEEEPPVPAVPEGVPARLEEVLEERRFTEPPPRYTDASLVKTMEELGIGRPSTYAPTLETLEKRGYVARKGRTLFPTPLGRQVTAYLRERFPQVVAYEFTARMEERLDEVEEGRVPWPKVVWEFYEPFLGELAQVPKKTCPRCGRPLELKVSRYGQFLGCTGYPECTYTEPLERREAEPIGEACPKCGRPLLRKEGRYGTFIACSGYPECDYTRDDGTPTGHTCPKCGGRVLEKRSRKGRPYYKCENNACDFLSFYPLLEEACPACGWPLVKKGEKALCLNPACPEHEPSLLPAPKEAKKGRSRGKGKPPLAPPKDWEELVPFLPGLSPEERRAVEALARGEALARGEALAEEEARLARRALFKLRMRKGKARKEPVRA | soluble |
| MNANLPPSAISELHGPRLLLRAWRDSDREAFAEMCADPQVMEFFPSVLDRAQSDALVDRVQAHFAERGYGPWALELPGEAAFIGFTGLFDVTMDVHFAPTVEIGWRLAPAYWGRGLAREAAETALDFAFERLRLPEVVAFTTPPNRRSWGLMERLGMRRDPAEDFDHPLLAADHPMRRHILYRVDAARWAER | not soluble |
| MSLTRIQLVISDVDGTLVTTDKRLTDRARDAVSRLEASGVGFTLTSSRPPVGMRMYSDPLGITLPLGPFNGSSIVTPTLDVLEQHLIPDSAATISIELFERSGIDIWLFTNDNWYIRRDDGKYVVHEERTIRFSPTMAEDLTPFAGKACKIVGVSADFALLKRCEPELQAALGDRALAVRSQDYYLDVTPPGRSKGTFVATMAERLGIAADAIATIGDMQNDLPMFGVSGLPIAMGNAADDIKQQAAHVTGRNDDDGFAAAIDFILEHNARVGEGHHHHHH | soluble |
